± gives the standard deviation.
Assay: protein stability index of a GFP-peptide fusion (GPS, HEK-293T) (PSI 1-6); higher = more stable
[1] = treatment: DMSO, c terminus: a fixed tail appended
[2] = treatment: MLN4924 1 uM, 8 h, c terminus: a fixed tail appended
[3] = treatment: DMSO, c terminus: native
[4] = treatment: MLN4924 1 uM, 8 h, c terminus: native
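Note: 24-mer peptide tiles fused after GFP, lentivirally expressed, FACS-sorted into six equal bins by GFP/DsRed ratio, decoded by Illumina sequencing, PSI is the read-weighted mean bin number.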

Row | Sequence | protein stability index [1] | protein stability index [2] | protein stability index [3] | protein stability index [4]
1 | SGRDRVGRQERGLPPSMERGYPPP [RBMX] | 4 ± 0.38 | 3.94 ± 0.19 | – | –
2 | EAAGGESALAPSVFKQAKDKVSDG [MAP2] | 5.46 ± 0.26 | 5.43 ± 0.32 | – | –
3 | NTLQTYIRCRHPPPGSHLLYAKMI [VDR] | 2.21 ± 0.15 | 2.33 ± 0.25 | – | –
4 | SEEELTHIFGDLDSYIPLHEDLLT [NET1] | 3.88 ± 0.19 | 4.03 ± 0.33 | – | –
5 | QNLVYYRFHRARWGLEEEDFQPRE [P3H4] | 2.38 ± 0.17 | 2.25 ± 0.27 | – | –
6 | SKMDQLAKELTAEKRLEGQEEEED [CHGA] | 5.54 ± 0.34 | 5.42 ± 0.36 | – | –
7 | ETDSEMNSQESRSDLEDMEEEEGT [SMG5] | 5.74 ± 0.16 | 5.69 ± 0.074 | – | –
8 | EISGPLTSANKITLVSSGSGTMGA [FLOT1] | 3.46 ± 0.046 | 3.5 ± 0.26 | – | –
9 | PAMRNSPTFKSFEERVETTVTSLK [TPD52L1] | 4.61 ± 0.13 | 4.42 ± 0.2 | – | –
10 | CKAFSTCVSHLIIVTVHYGCASFI [OR10K2] | 2.88 ± 0.54 | 3.01 ± 0.57 | – | –
11 | LLFAGSSLASQVHAAAVNGDKGAL [INVS] | 2.61 ± 0.34 | 2.76 ± 0.21 | – | –
12 | YSLRILIGDPPHHDHHDEFCLMP [BEX5] | – | – | 2.62 ± 0.4 | 2.03 ± 0.35
13 | QFYRNLGKSGLRVSCLGLGTWVTF [KCNAB2] | 2.24 ± 0.86 | 2.2 ± 0.32 | – | –
14 | VDSHHEYPAMTFYSPAVMNYSIPS [ESR2] | 2.8 ± 0.18 | 2.89 ± 0.24 | – | –
15 | PPPTTAPHKERYFDRVDENNPEYL [ADD1] | 5.06 ± 0.17 | 5.14 ± 0.17 | – | –
16 | PAWYVAACRANVKSGAIMSALSDT [PPFIA4] | 2.58 ± 0.26 | 2.25 ± 0.39 | – | –
17 | MLIEELYAFMPARSQDPKKPSRV [CBY2] | – | – | 2.57 ± 0.46 | 2.55 ± 0.17
18 | KIMEAESQKATRECEKSALTPGFS [FAN1] | 4.86 ± 0.29 | 4.84 ± 0.14 | – | –
19 | EARGLRLSDLEDLEEEEEEEEEAE [IRX6] | 5.55 ± 0.41 | 5.5 ± 0.39 | – | –
20 | NIEDYFSHHLAVYNSPQFKKTMST [FBXO39] | 2.75 ± 0.28 | 2.71 ± 0.12 | – | –
21 | QQWFPSLELGHWLYQTELVENECY [TOR1AIP2] | 2.55 ± 0.54 | 2.34 ± 0.47 | – | –
22 | RLWHTACASDEGEVIVFGGCANNL [KLHDC2] | 2.75 ± 0.34 | 2.89 ± 0.44 | – | –
23 | KWWSDRLALFPLLPKVLQKYWCVT [ZBED1] | 2.93 ± 1 | 2.73 ± 0.61 | – | –

Row | Sequence | protein stability index [1] | protein stability index [2] | protein stability index [3] | protein stability index [4]
24 | LLKPIPEYSPEEESEPPAPNIRNM [TRAF3IP2] | 5.12 ± 0.11 | 5.22 ± 0.37 | – | –
25 | SNFDDFPESDILQPVPNTTEPDYK [STK38L] | 5.59 ± 0.25 | 5.24 ± 0.29 | – | –
26 | MKIFREKIEDFREEMWTFRGKIHA [CCDC70] | 2.07 ± 0.26 | 2.39 ± 0.43 | – | –
27 | VYSCAFSPDSSMLCSVGASKAVFL [WSB1] | 2.8 ± 0.5 | 2.86 ± 0.49 | – | –
28 | NAYHIERLMSFRPICSANHKESKM [CRYBA1] | 3.12 ± 0.16 | 3.29 ± 0.12 | – | –
29 | DARYKLHHHLHKTLREITDQEHNV [TEKT4] | 3.77 ± 0.29 | 4.02 ± 0.14 | – | –
30 | PAAMGPPGAPPGRDLASVPPELTA [DVL3] | 4.88 ± 0.29 | 4.89 ± 0.075 | – | –
31 | WGCSCCPPETKHQALSGTPKKGPA [TSPAN10] | 4.13 ± 0.41 | 4.44 ± 0.26 | – | –
32 | VKCNGALINTSDTVQHGAVYSLEP [SDE2] | 3.57 ± 0.5 | 3.75 ± 0.33 | – | –
33 | EAFLAQFSQLEDKFPGQSSFLWQR [TOR1AIP2] | 2.39 ± 0.56 | 2.5 ± 0.53 | – | –
34 | RTKQVLHTFKTRFTQPLLPAFTVW [FSD1] | 2.53 ± 0.32 | 2.44 ± 0.46 | – | –
35 | TEKLKANAESSKTWLKGKFTELRL [TRIM14] | 2.53 ± 0.43 | 2.48 ± 0.42 | – | –
36 | TPVDMWSVGCIFAEMFRRKPLFCG [CDK4] | 2.98 ± 0.97 | 2.64 ± 0.61 | – | –
37 | FSRVVHLYRNGKDQDGDQAPEYRG [MOG] | 3.77 ± 0.21 | 3.88 ± 0.34 | – | –
38 | SSYSSCYSFGSGGGYGSSFGGVDG [KRT17] | 2.69 ± 0.38 | 2.53 ± 0.2 | – | –
39 | GCWATDAAPAAGLCGAGSEPSIAP [RSPH3] | 4.26 ± 0.25 | 4.41 ± 0.07 | – | –
40 | PGPGDDLCSDLEEAPEAELSQAPA [HES6] | 5.44 ± 0.23 | 5.43 ± 0.35 | – | –
41 | SPSTRGSPNRSLPSPGVLCGSARP [ATF4] | 4.49 ± 0.46 | 4.88 ± 0.18 | – | –
42 | CALEEYVRSQYPNQPTRFGKLLLR [NR2F2] | 2.22 ± 0.17 | 2.33 ± 0.25 | – | –
43 | IRIIDRALKEDFGFKHRLWVYSGR [PRIM1] | 2.18 ± 0.51 | 2.27 ± 0.51 | – | –
44 | LIPRTMADQQARRQERKPKDRRK [NFE2L1] | – | – | 5.32 ± 0.22 | 5.217 ± 0.028
45 | AVAHMKYMGKGSMTGLALKHMFER [MATN2] | 2.07 ± 0.3 | 2.34 ± 0.26 | – | –
46 | AVSCPYLPSNLLKKFRSSTSSSLG [KCNA4] | 2.54 ± 0.21 | 2.58 ± 0.2 | – | –

Row | Sequence | protein stability index [1] | protein stability index [2] | protein stability index [3] | protein stability index [4]
47 | IDVSNPQTVGVGRGRFTTYEIRVK [SNX3] | 2.56 ± 0.25 | 2.69 ± 0.35 | – | –
48 | LLGEIDLEKESDTPLQQVSIEEIL [LSM1] | 4.97 ± 0.16 | 4.93 ± 0.27 | – | –
49 | EERNRFTETREEDVTDEHGEREPF [FAM9B] | 5.62 ± 0.17 | 5.58 ± 0.12 | – | –
50 | PGFDSSVYSDLCEAAEAVRPEERK [ADAMTSL2] | 5.42 ± 0.19 | 5.83 ± 0.18 | – | –
51 | SPRRVGFVGAGRMAGAIAQGLIRA [PYCR3] | 2.66 ± 0.15 | 2.78 ± 0.14 | – | –
52 | GGRRRPPASSRNRSPSGSLRSARG [RBMY1A1] | 5.16 ± 0.28 | 5.2 ± 0.18 | – | –
53 | YDIEVNTRRAQADLAYQLQVAKTK [FLOT1] | 4.35 ± 0.18 | 4.33 ± 0.19 | – | –
54 | PPGHHAEQDAACGFCFFNSVAVAA [HDAC6] | 2.88 ± 0.51 | 2.96 ± 0.68 | – | –
55 | EAKEGDLHRIEIPFKFHMLHSGLV [CARM1] | 2.07 ± 0.48 | 2.49 ± 0.23 | – | –
56 | LLFPEEEATNGREGLLRFSSWPFS [AUP1] | 2.58 ± 0.23 | 2.51 ± 0.21 | – | –
57 | TCSRVDYCLLSDHGCEYSCVNMDR [MATN2] | 2.84 ± 0.24 | 2.82 ± 0.32 | – | –
58 | NFSKKIQQIHVVSQFKILVSLLEN [VPS39] | 2.64 ± 0.39 | 2.81 ± 0.66 | – | –
59 | RHAQTISGHALRILIVDWDVHHGN [HDAC6] | 2.18 ± 0.18 | 2.34 ± 0.4 | – | –
60 | CMPLVCTAIFYTLMTCEMLNRRNG [EDNRA] | 3.29 ± 0.24 | 3.58 ± 0.93 | – | –
61 | MIPGFRDLTSEDQIVLLKSSAIEV [VDR] | 2.33 ± 0.25 | 2.43 ± 0.18 | – | –
62 | EQREWVLKSSILIAMAVYTYLRLI [INTS3] | 2.6 ± 0.59 | 2.59 ± 0.45 | – | –
63 | VLYPVPLESYEDIHGTLHLERLAY [PRAME] | 2.31 ± 0.23 | 2.38 ± 0.36 | – | –
64 | GLTLGRSFSNYRPFEPQALGLSPS [SEPHS2] | 2.78 ± 0.36 | 2.81 ± 0.49 | – | –
65 | TTVVVFVASMVLGECRQMSSSSQI [CLCN6] | 3 ± 0.49 | 3.22 ± 0.24 | – | –
66 | TTSTLASSLPGHAAKTLPGGAGKG [EHMT1] | 4.77 ± 0.15 | 5.28 ± 0.16 | – | –
67 | TDANLPSGGKGFKLRRQPSEPKRS [RAB22A] | 4.88 ± 0.41 | 5.08 ± 0.17 | – | –
68 | SPWNFLGDELYEQSDEEQDSVKVA [CLPTM1] | 5.32 ± 0.21 | 5.36 ± 0.4 | – | –
69 | TIVNFPITNVDLREYLSEEVQAVH [USP39] | 2.92 ± 0.18 | 3.41 ± 0.41 | – | –

Row | Sequence | protein stability index [1] | protein stability index [2] | protein stability index [3] | protein stability index [4]
70 | DPSGVSGATVGRKSRRSRSESETS [C18orf25] | 5.69 ± 0.17 | 5.42 ± 0.49 | – | –
71 | AAARCVVLDCRPYLAFAASNVRGS [DUSP5] | 2.15 ± 0.55 | 2.2 ± 0.093 | – | –
72 | RGLRGEPGPQGSAGQRGEPGPKGD [EMID1] | 5.19 ± 0.4 | 5.41 ± 0.6 | – | –
73 | YTGEIKISENLDYEETGFYEIEIQ [PCDHGA10] | 2.97 ± 0.18 | 2.87 ± 0.46 | – | –
74 | NKYDNTCLMIAAYKGHTDVVRYLL [FEM1B] | 2.44 ± 0.66 | 2.31 ± 0.29 | – | –
75 | GGCTVGVAGEGVRRKGEMGLSAED [TRIM15] | 4.98 ± 0.46 | 5.21 ± 0.37 | – | –
76 | DFCEPSFVTGNCLEISPDCSQYDR [PCMTD2] | 4.38 ± 0.32 | 4.4 ± 0.22 | – | –
77 | SEKSQREDEEEEEGENYQKGERGE [CHGB] | 5.48 ± 0.28 | 5.58 ± 0.28 | – | –
78 | KQKYFYKGGLVWDENSSDGRYVKE [CLK3] | 3.53 ± 0.2 | 3.62 ± 0.043 | – | –
79 | IMATLGFGDSPKAEKRQIGDQEGP [FBF1] | 4.37 ± 0.17 | 4.3 ± 0.12 | – | –
80 | IQPDDLINQLTFIMDANQTYLVSE [FAF2] | 2.32 ± 0.27 | 2.37 ± 0.31 | – | –
81 | PGKYFSAAEYHAQRLKAVIVIQTY [IQUB] | 2.81 ± 0.32 | 2.5 ± 0.66 | – | –
82 | TLEKCEKVKTMEVTSVSIELEKNF [TRIM39] | 4.16 ± 0.21 | 4.15 ± 0.23 | – | –
83 | QQNIPSTLLQDHENQRLFEMLGRK [WAS] | 4.32 ± 0.17 | 4.25 ± 0.24 | – | –
84 | PAGVGVVVEATHMCMVMRGVQKMN [GCH1] | 2.41 ± 0.23 | 2.32 ± 0.34 | – | –
85 | LLCPLCQEEEQAETPMAPVPLGPL [TRIM15] | 3.38 ± 0.67 | 3.73 ± 0.35 | – | –
86 | LQSEPHRAGVQWKFAGSFYFAITV [KCNK9] | 3.47 ± 0.43 | 2.82 ± 0.81 | – | –
87 | LEAVAGALVVALWGPLQDSLEHTL [TSPAN10] | 3.12 ± 0.95 | 3.57 ± 0.42 | – | –
88 | PGPPGPTGVPGSPGHIGPPGPTGP [EMID1] | 5.29 ± 0.11 | 5.13 ± 0.44 | – | –
89 | LQRLRENAAHLGDKRRDLAHLAAE [TRIM39] | 4.13 ± 0.31 | 3.82 ± 0.28 | – | –

Reference: the supplement of paper PMC10567573
